Measured values taken from patent publication US20090098103A1.

Experiments:
Assay in all cases: cell-based or functional assay
[1] = biological target: FVIIa variant CB611 D196L/K197L (human) (UniProt P08709)
[2] = biological target: FVIIa variant CB671 K197E/G237V/K341Q (human) (UniProt P08709)
[3] = biological target: FVIIa variant CB608 G237V (human) (UniProt P08709)
[4] = biological target: FVIIa variant CB609 K341Q (human) (UniProt P08709)
[5] = biological target: FVIIa variant CB697 R290N (human) (UniProt P08709)
[6] = biological target: FVIIa variant CB587 D196K/K197E/K199E (human) (UniProt P08709)
[7] = biological target: FVIIa variant CB567 R290E (human) (UniProt P08709)
[8] = biological target: wild-type Factor VII polypeptide (CB553-02), activated (FVIIa) (human) (UniProt P08709)
[9] = biological target: FVIIa variant CB694 K199E/K341Q (human) (UniProt P08709)
[10] = biological target: FVIIa variant CB556 D196A (human) (UniProt P08709)
[11] = biological target: FVIIa variant CB568 R290A (human) (UniProt P08709)
[12] = biological target: FVIIa variant CB594 V158D/E296V/M298Q/K337A (human) (UniProt P08709)
[13] = biological target: FVIIa variant CB558 K197E (human) (UniProt P08709)
[14] = biological target: FVIIa variant CB696 G237V/M298Q/K341Q (human) (UniProt P08709)
[15] = biological target: FVIIa variant CB602 D196W (human) (UniProt P08709)
[16] = biological target: FVIIa variant CB600 D196F (human) (UniProt P08709)
[17] = biological target: FVIIa variant CB555 D196R (human) (UniProt P08709)
[18] = biological target: FVIIa variant CB598 K197W (human) (UniProt P08709)
[19] = biological target: FVIIa variant CB688 K197E/K199E (human) (UniProt P08709)
[20] = biological target: FVIIa variant CB559 K197A (human) (UniProt P08709)
[21] = biological target: FVIIa variant CB580 D196K/R290E (human) (UniProt P08709)
[22] = biological target: FVIIa variant CB701 R290V (human) (UniProt P08709)
[23] = biological target: FVIIa variant CB563 K199E (human) (UniProt P08709)
[24] = biological target: FVIIa variant CB566 R290D (human) (UniProt P08709)
[25] = biological target: FVIIa variant CB637 K197E/K341Q (human) (UniProt P08709)
[26] = biological target: FVIIa variant CB591 L305V/S314E/L337A/F374Y (human) (UniProt P08709)
[27] = biological target: FVIIa variant CB599 K197M (human) (UniProt P08709)
[28] = biological target: FVIIa variant CB564 K199A (human) (UniProt P08709)
[29] = biological target: FVIIa variant CB593 V158D/E296V/M298Q (human) (UniProt P08709)

“Human Recombinant TFPI (R&D Systems) (from UniProt P10646 29-282)” showed a TFPI fold resistance (fold vs wild-type FVIIa) [1] of less than 0.3, a TFPI fold resistance (fold vs wild-type FVIIa) [2] of 18.9 and a TFPI fold resistance (fold vs wild-type FVIIa) [3] of 0.8. It also gave a TFPI fold resistance (fold vs wild-type FVIIa) [4] of 12.2, a TFPI fold resistance (fold vs wild-type FVIIa) [5] of 1.5 and an IC50 of TFPI inhibition of FVIIa/TF [6] of 20 nM. It also gave a TFPI fold resistance (fold vs wild-type FVIIa) [6] of 0.3, a pIC50 of TFPI inhibition of FVIIa/TF [6] of 7.7 and an IC50 of TFPI inhibition of FVIIa/TF [7] of 440 nM. The TFPI fold resistance (fold vs wild-type FVIIa) [7] was 6.1, the pIC50 of TFPI inhibition of FVIIa/TF [7] was 6.4 and the IC50 of TFPI inhibition of FVIIa/TF [8] was 88 nM. For the same substance, the TFPI fold resistance (fold vs wild-type FVIIa) [8] was 1, the pIC50 of TFPI inhibition of FVIIa/TF [8] was 7.1 and the TFPI fold resistance (fold vs wild-type FVIIa) [9] was 19.1. For the same substance, the IC50 of TFPI inhibition of FVIIa/TF [10] was 5 nM, the TFPI fold resistance (fold vs wild-type FVIIa) [10] was less than 0.3 and the pIC50 of TFPI inhibition of FVIIa/TF [10] was 8.3. It also gave an IC50 of TFPI inhibition of FVIIa/TF [11] of 200 nM, a TFPI fold resistance (fold vs wild-type FVIIa) [11] of 2.8 and a pIC50 of TFPI inhibition of FVIIa/TF [11] of 6.7. It also gave an IC50 of TFPI inhibition of FVIIa/TF [12] of 22 nM, a TFPI fold resistance (fold vs wild-type FVIIa) [12] of 0.3 and a pIC50 of TFPI inhibition of FVIIa/TF [12] of 7.7. For the same substance, the IC50 of TFPI inhibition of FVIIa/TF [13] was 310 nM, the TFPI fold resistance (fold vs wild-type FVIIa) [13] was 1.3 and the pIC50 of TFPI inhibition of FVIIa/TF [13] was 6.5. For the same substance, the TFPI fold resistance (fold vs wild-type FVIIa) [14] was 3.2, the TFPI fold resistance (fold vs wild-type FVIIa) [15] was less than 0.3 and the TFPI fold resistance (fold vs wild-type FVIIa) [16] was less than 0.3. For the same substance, the IC50 of TFPI inhibition of FVIIa/TF [17] was 37 nM, the TFPI fold resistance (fold vs wild-type FVIIa) [17] was 0.5 and the pIC50 of TFPI inhibition of FVIIa/TF [17] was 7.4. The TFPI fold resistance (fold vs wild-type FVIIa) [18] was less than 0.3, the TFPI fold resistance (fold vs wild-type FVIIa) [19] was 2.1 and the IC50 of TFPI inhibition of FVIIa/TF [20] was 53 nM. The TFPI fold resistance (fold vs wild-type FVIIa) [20] was 0.7, the pIC50 of TFPI inhibition of FVIIa/TF [20] was 7.3 and the IC50 of TFPI inhibition of FVIIa/TF [21] was 52 nM. The TFPI fold resistance (fold vs wild-type FVIIa) [21] was 0.7, the pIC50 of TFPI inhibition of FVIIa/TF [21] was 7.3 and the TFPI fold resistance (fold vs wild-type FVIIa) [22] was 2.5. It also gave an IC50 of TFPI inhibition of FVIIa/TF [23] of 33 nM, a TFPI fold resistance (fold vs wild-type FVIIa) [23] of 1.3 and a pIC50 of TFPI inhibition of FVIIa/TF [23] of 7.5. It also gave an IC50 of TFPI inhibition of FVIIa/TF [24] of 240 nM, a TFPI fold resistance (fold vs wild-type FVIIa) [24] of 3.3 and a pIC50 of TFPI inhibition of FVIIa/TF [24] of 6.6. It also gave a TFPI fold resistance (fold vs wild-type FVIIa) [25] of 80.7, an IC50 of TFPI inhibition of FVIIa/TF [26] of 43 nM and a TFPI fold resistance (fold vs wild-type FVIIa) [26] of 0.6. The pIC50 of TFPI inhibition of FVIIa/TF [26] was 7.4, the TFPI fold resistance (fold vs wild-type FVIIa) [27] was 0.3 and the IC50 of TFPI inhibition of FVIIa/TF [28] was 68 nM. The TFPI fold resistance (fold vs wild-type FVIIa) [28] was 0.9, the pIC50 of TFPI inhibition of FVIIa/TF [28] was 7.2 and the IC50 of TFPI inhibition of FVIIa/TF [29] was 41 nM. It also gave a TFPI fold resistance (fold vs wild-type FVIIa) [29] of 0.8 and a pIC50 of TFPI inhibition of FVIIa/TF [29] of 7.4.
